Laboratory results as given in paper PMC7573786 (Chemical communications (Cambridge, England), 2020).
Blank lines part the entries; values can stand above or below the binder they belong to.

Legend:
[1] = biological target: CBX1 chromodomain Y26AzF/F50AzF (UniProt P83916 20-73, Y26AzF, 4-azido-L-phenylalanine (AzF) at 26 and at 50); test: fluorescence polarisation
[2] = biological target: T1, wild type chromodomain of CBX1 (Chromobox protein 1) (UniProt P83916 20-73); test: fluorescence polarisation
[3] = biological target: CBX1 chromodomain Y26AzF/D54AzF (UniProt P83916 20-73, Y26AzF, 4-azido-L-phenylalanine (AzF) at 26 and at 54); test: fluorescence polarisation
[4] = biological target: T1, wild type chromodomain of CBX1 …; test: ITC

Kd [1]: 48.9 ± 8.7 µM
Kd [2]: 1.7 ± 0.2 µM
Kd [3]: 50.8 ± 5.7 µM
B1: TAMRA-H3K9me3 tracer peptide 2 (peptide)
chain: ARTKQTARKSTGGKA
modifications: trimethyllysine at K9; tetramethyl rhodamine (TAMRA) at the N-terminus

Kd [4]: 5.3 ± 0.4 µM
B2: H3K9me3 peptide 3 (non-TAMRA) (peptide)
chain: ARTKQTARKSTGGKA
modifications: trimethyllysine at K9
